The results in this text go back to PMC7758071.

This experiment concerns the target Chinese hamster BiP, wild type, with an N-terminal His6-tag (UK173) (Chinese hamster) (UniProt G3I8R9). The experiment in a line: SEC; 40 µM BiP with 1 mM ADP, 20 min at 24°C; SEC-3 HPLC column, 50 mM HEPES-KOH pH 7.4, 150 mM KCl, 10 mM MgCl2, 26°C; A230.

“And” between values parts separate entries of the source, which are not always exact repeats. Equal values may be shown once.

As for “Chinese hamster BiP, wild type, with an N-terminal His6-tag (UK173) (from UniProt G3I8R9 19-654) (natural protein)”, the stoichiometry N is 2 and 3.

In general, stoichiometry N refers to a count of units in the complex or per binding partner.
